Assay results as given in paper PMC7570871, “Evaluation of a New ^177Lu-Labeled Somatostatin Analog for the Treatment of Tumors Expressing Somatostatin Receptor Subtypes 2 and 5” (Molecules, 2020).

Tests used:
[1] = format: physicochemical; conditions: pH 7.4
Procedure: To a pre-saturated mixture of 500 µL 1-octanol and 500 µL of phosphate-buffered saline (PBS) (pH 7.4), 10 µL of 1 µM of the ^177Lu-labeled conjugates were added. The solution was vortexed for 1 h to reach the equilibrium and then centrifuged (3000 rpm) for 10 min. From each phase, 100 µL of the aliquot was removed and measured in a γ-counter. Each measurement was repeated three times. Care was taken to avoid cross-contamination between the phases. The partition coefficient was calculated as the average of the logarithmic values (n = 3) of the ratio between the radioactivity in the organic and the PBS phase.

[2] = in vivo; conditions: female, mouse, total radioactivity
Procedure: The Veterinary Office (Department of Health) of the Cantonal Basel-Stadt approved the animal experiments (approval no. 2799) in accordance with the Swiss regulations for animal treatment. Female athymic Nude-Foxn1^nu/Foxn1^+ mice (Envigo, The Netherlands), 4–6 weeks old, were injected subcutaneously with 10^7 HEK-SST2 cells in the right shoulder and 10^7 HEK-SST5 cells in the left shoulder, freshly suspended in 100 μL sterile phosphate-buffered saline. The tumors were allowed to grow for 2–3 weeks.
(§1) At the selected time points, the mice were sacrificed and the organs of interest were collected, rinsed, blotted, weighed and counted in a γ-counter. The results are expressed as a percentage of injected activity per gram (%IA/g) obtained by extrapolation from counts of an aliquot taken from the injected solution as a standard.
as §1, with “preselected” for “selected”

[3] = in vivo; conditions: mouse, 100 pmol, total radioactivity
Procedure: The mice were sacrificed 4 h p.i. and accumulation of the radiotracer in the tumors and in all organs of interest was quantified in a γ-counter.

[4] = test system: dual SST2- and SST5-expressing xenografts; conditions: use of basic amino acids; reference not given; cited from earlier work
[5] = athymic Nude-Foxn1^nu/Foxn1^+, 100 pmol, Pancreas uptake
[6] = athymic Nude-Foxn1^nu/Foxn1^+, 100 pmol, Spleen uptake
[7] = athymic Nude-Foxn1^nu/Foxn1^+, 100 pmol, Stomach uptake
[8] = athymic Nude-Foxn1nu/Foxn1+, 10 pmol, Adrenal uptake
[9] = athymic Nude-Foxn1nu/Foxn1+, 10 pmol, Blood uptake
[10] = athymic Nude-Foxn1nu/Foxn1+, 10 pmol, Bone uptake
[11] = athymic Nude-Foxn1nu/Foxn1+, 10 pmol, Heart uptake
[12] = athymic Nude-Foxn1nu/Foxn1+, 10 pmol, Intestine uptake
[13] = athymic Nude-Foxn1nu/Foxn1+, 10 pmol, Kidney uptake
[14] = athymic Nude-Foxn1nu/Foxn1+, 10 pmol, Liver uptake
[15] = athymic Nude-Foxn1nu/Foxn1+, 10 pmol, Lung uptake
[16] = athymic Nude-Foxn1nu/Foxn1+, 10 pmol, Muscle uptake
[17] = athymic Nude-Foxn1nu/Foxn1+, 10 pmol, Pancreas uptake
[18] = athymic Nude-Foxn1nu/Foxn1+, 10 pmol, SST2-tumor uptake
[19] = athymic Nude-Foxn1nu/Foxn1+, 10 pmol, SST5-tumor uptake
[20] = athymic Nude-Foxn1nu/Foxn1+, 10 pmol, Spleen uptake
[21] = athymic Nude-Foxn1nu/Foxn1+, 10 pmol, Stomach uptake
[22] = athymic Nude-Foxn1nu/Foxn1+, 100 pmol, Adrenal uptake
[23] = athymic Nude-Foxn1nu/Foxn1+, 100 pmol, Blood uptake
[24] = athymic Nude-Foxn1nu/Foxn1+, 100 pmol, Bone (Femur) uptake
[25] = athymic Nude-Foxn1nu/Foxn1+, 100 pmol, Femur uptake
[26] = athymic Nude-Foxn1nu/Foxn1+, 100 pmol, Heart uptake
[27] = athymic Nude-Foxn1nu/Foxn1+, 100 pmol, Intestine uptake
[28] = athymic Nude-Foxn1nu/Foxn1+, 100 pmol, Kidney uptake
[29] = athymic Nude-Foxn1nu/Foxn1+, 100 pmol, Liver uptake
[30] = athymic Nude-Foxn1nu/Foxn1+, 100 pmol, Lung uptake
[31] = athymic Nude-Foxn1nu/Foxn1+, 100 pmol, Muscle uptake
[32] = athymic Nude-Foxn1nu/Foxn1+, 100 pmol, Pancreas uptake
[33] = athymic Nude-Foxn1nu/Foxn1+, 100 pmol, SST2-tumor uptake
[34] = athymic Nude-Foxn1nu/Foxn1+, 100 pmol, SST5-tumor uptake
[35] = athymic Nude-Foxn1nu/Foxn1+, 100 pmol, Spleen uptake
[36] = athymic Nude-Foxn1nu/Foxn1+, 100 pmol, Stomach uptake

## CC(C)[C@@H]1NC(=O)[C@H](CCCCN)NC(=O)[C@@H](Cc2c[nH]c3ccccc23)NC(=O)[C@H](Cc2ccc(O)c(I)c2)NC(=O)[C@@H](NC(=O)[C@@H](Cc2ccc(N)c(I)c2)NC(=O)CN2CCN(CC(=O)O)CCN(CC(=O)O)CCN(CC(=O)O)CC2)CSSC[C@@H](C(=O)N[C@H](C(N)=O)[C@@H](C)O)NC1=O [[^177Lu]Lu-DOTA-ST8950, metal not drawn]
[1]
  logD: -1.2 ± 0.1
[2]; athymic Nude-Foxn1^nu/Foxn1^+, 100 pmol, Liver uptake
  tissue uptake at 168 h: 0.54 ± 0.09 %ID/g
[2]; [5]
  tissue uptake at 24 h: 1.68 ± 0.27 %ID/g
  tissue uptake at 72 h: 0.72 ± 0.14 %ID/g
  tissue uptake at 168 h: 0.37 ± 0.05 %ID/g
[2]; [6]
  tissue uptake at 24 h: 0.36 ± 0.24 %ID/g
  tissue uptake at 72 h: 0.38 ± 0.12 %ID/g
  tissue uptake at 168 h: 0.27 ± 0.05 %ID/g
[2]; [7]
  tissue uptake at 24 h: 2.61 ± 0.44 %ID/g
  tissue uptake at 72 h: 1.66 ± 0.49 %ID/g
  tissue uptake at 168 h: 0.99 ± 0.04 %ID/g
[2]; [8]
  tissue uptake at 1 h: 6.01 ± 1.15 %ID/g
  tissue uptake at 4 h: 5.37 ± 1.17 %ID/g
[2]; [9]
  tissue uptake at 1 h: 1.3 ± 0.24 %ID/g
  tissue uptake at 4 h: 0.15 ± 0.02 %ID/g
[2]; [10]
  tissue uptake at 1 h: 1.35 ± 0.25 %ID/g
  tissue uptake at 4 h: 1.12 ± 0.38 %ID/g
[2]; [11]
  tissue uptake at 1 h: 0.84 ± 0.18 %ID/g
  tissue uptake at 4 h: 0.2 ± 0.04 %ID/g
[2]; [12]
  tissue uptake at 1 h: 3.08 ± 0.38 %ID/g
  tissue uptake at 4 h: 2.29 ± 0.42 %ID/g
[2]; [13]
  tissue uptake at 1 h: 11.7 ± 1.79 %ID/g
  tissue uptake at 4 h: 10.8 ± 1.27 %ID/g
[2]; [14]
  tissue uptake at 1 h: 2.73 ± 0.59 %ID/g
  tissue uptake at 4 h: 2.2 ± 0.27 %ID/g
[2]; [15]
  tissue uptake at 1 h: 7.12 ± 2.59 %ID/g
  tissue uptake at 4 h: 3.81 ± 0.98 %ID/g
[2]; [16]
  tissue uptake at 1 h: 0.4 ± 0.07 %ID/g
  tissue uptake at 4 h: 0.13 ± 0.02 %ID/g
[2]; [17]
  tissue uptake at 1 h: 5.99 ± 1.75 %ID/g
  tissue uptake at 4 h: 3.21 ± 0.5 %ID/g
[2]; [18]
  tissue uptake at 1 h: 12.1 ± 3.94 %ID/g
  tissue uptake at 4 h: 10.3 ± 2.78 %ID/g
[2]; [19]
  tissue uptake at 1 h: 1.94 ± 0.46 %ID/g
  tissue uptake at 4 h: 1.52 ± 0.75 %ID/g
[2]; [20]
  tissue uptake at 1 h: 1.82 ± 0.26 %ID/g
  tissue uptake at 4 h: 0.96 ± 0.18 %ID/g
[2]; [21]
  tissue uptake at 1 h: 9.68 ± 2.34 %ID/g
  tissue uptake at 4 h: 6.03 ± 1.28 %ID/g
[2]; [22]
  tissue uptake at 1 h: 4.23 ± 0.68 %ID/g
  tissue uptake at 4 h: 5.21 ± 1.92 %ID/g
  tissue uptake at 24 h: 3.81 ± 1.08 %ID/g
  tissue uptake at 72 h: 2.86 ± 1.3 %ID/g
  tissue uptake at 168 h: 1.84 ± 0.49 %ID/g
[2]; [23]
  tissue uptake at 1 h: 0.96 ± 0.23 %ID/g
  tissue uptake at 4 h: 0.09 ± 0.03 %ID/g
  tissue uptake at 24 h: 0.02 %ID/g
  tissue uptake at 72 h: 0.01 %ID/g
[2]; [24]
  tissue uptake at 1 h: 0.74 ± 0.11 %ID/g
  tissue uptake at 4 h: 0.49 ± 0.11 %ID/g
[2]; [25]
  tissue uptake at 24 h: 0.3 ± 0.05 %ID/g
  tissue uptake at 72 h: 0.19 ± 0.05 %ID/g
  tissue uptake at 168 h: 0.11 ± 0.01 %ID/g
[2]; [26]
  tissue uptake at 1 h: 0.69 ± 0.09 %ID/g
  tissue uptake at 4 h: 0.17 ± 0.03 %ID/g
  tissue uptake at 24 h: 0.08 ± 0.01 %ID/g
  tissue uptake at 72 h: 0.06 ± 0.02 %ID/g
  tissue uptake at 168 h: 0.04 ± 0.01 %ID/g
[2]; [27]
  tissue uptake at 1 h: 1.95 ± 0.65 %ID/g
  tissue uptake at 4 h: 1.14 ± 0.42 %ID/g
  tissue uptake at 24 h: 0.51 ± 0.09 %ID/g
  tissue uptake at 72 h: 0.28 ± 0.06 %ID/g
  tissue uptake at 168 h: 0.12 ± 0.02 %ID/g
[2]; [28]
  tissue uptake at 1 h: ~10 %ID/g
  tissue uptake at 4 h: ~10 %ID/g
  tissue uptake at 24 h: 5.99 ± 0.41 %ID/g
  tissue uptake at 72 h: 3.2 ± 0.84 %ID/g
  tissue uptake at 168 h: 1.42 ± 0.38 %ID/g
[2]; [29]
  tissue uptake at 1 h: 2.6 ± 0.42 %ID/g
  tissue uptake at 4 h: 2.19 ± 0.48 %ID/g
  tissue uptake at 24 h: 1.23 ± 0.16 %ID/g
  tissue uptake at 72 h: 0.85 ± 0.21 %ID/g
[2]; [30]
  tissue uptake at 1 h: 3.9 ± 0.84 %ID/g
  tissue uptake at 4 h: 1.69 ± 0.4 %ID/g
  tissue uptake at 24 h: 1.16 ± 0.1 %ID/g
  tissue uptake at 72 h: 0.46 ± 0.08 %ID/g
  tissue uptake at 168 h: 0.23 ± 0.09 %ID/g
[2]; [31]
  tissue uptake at 1 h: 0.3 ± 0.07 %ID/g
  tissue uptake at 4 h: 0.1 ± 0.02 %ID/g
  tissue uptake at 24 h: 0.06 %ID/g
  tissue uptake at 72 h: 0.04 ± 0.01 %ID/g
  tissue uptake at 168 h: 0.01 %ID/g
[2]; [32]
  tissue uptake at 1 h: 6.36 ± 1.39 %ID/g
  tissue uptake at 4 h: 4.38 ± 1.02 %ID/g
[2]; [33]
  tissue uptake at 1 h: 14.2 ± 1.78 %ID/g
  tissue uptake at 4 h: 15.5 ± 3.63 %ID/g
  tissue uptake at 24 h: 9.32 ± 2.02 %ID/g
  tissue uptake at 72 h: 4.22 ± 1.43 %ID/g
  tissue uptake at 168 h: 0.79 ± 0.13 %ID/g
[2]; [34]
  tissue uptake at 1 h: 1.78 ± 0.35 %ID/g
  tissue uptake at 4 h: 1.87 ± 0.49 %ID/g
  tissue uptake at 24 h: 0.88 ± 0.16 %ID/g
  tissue uptake at 72 h: 0.35 ± 0.08 %ID/g
  tissue uptake at 168 h: 0.08 ± 0.01 %ID/g
[2]; [35]
  tissue uptake at 1 h: 1.29 ± 0.19 %ID/g
  tissue uptake at 4 h: 0.68 ± 0.11 %ID/g
[2]; [36]
  tissue uptake at 1 h: 5.63 ± 0.79 %ID/g
  tissue uptake at 4 h: 4.94 ± 0.9 %ID/g
[3]; Adrenal uptake
  tissue uptake at 4 h: 5.45 ± 2.26 %ID/g
[3]; Blood uptake
  tissue uptake at 4 h: 0.1 ± 0.02 %ID/g
[3]; Femur uptake
  tissue uptake at 4 h: 0.56 ± 0.24 %ID/g
[3]; Heart uptake
  tissue uptake at 4 h: 0.18 ± 0.03 %ID/g
[3]; Intestine uptake
  tissue uptake at 4 h: 1.35 ± 0.14 %ID/g
[3]; Kidney uptake
  tissue uptake at 4 h: 8.96 ± 1.39 %ID/g
[3]; Liver uptake
  tissue uptake at 4 h: 2.28 ± 0.2 %ID/g
[3]; Lung uptake
  tissue uptake at 4 h: 2.43 ± 1.21 %ID/g
[3]; Muscle uptake
  tissue uptake at 4 h: 0.15 ± 0.02 %ID/g
[3]; SST(-)-tumor uptake
  tissue uptake at 4 h: 0.7 ± 0.08 %ID/g
[3]; Spleen uptake
  tissue uptake at 4 h: 0.84 ± 0.06 %ID/g
[3]; Stomach uptake
  tissue uptake at 4 h: 4.89 ± 0.94 %ID/g

## C[C@@H](O)[C@@H]1NC(=O)[C@H](CCCCN)NC(=O)[C@@H](Cc2c[nH]c3ccccc23)NC(=O)[C@H](Cc2cccc3ccccc23)NC(=O)[C@@H](NC(=O)[C@@H](Cc2ccccc2)NC(=O)CN2CCN(CC(=O)O)CCN(CC(=O)O)CCN(CC(=O)O)CC2)CSSC[C@@H](C(=O)N[C@H](CO)[C@@H](C)O)NC1=O [[^177Lu]Lu-DOTA-NOC, metal not drawn, reference compound]
[1]
  logD: -1.6 ± 0.1

## [^177Lu]Lu-DOTA-TATE
[4]
  Kidney uptake reduction with basic amino acids: 40%
